Experimental findings from the RNAGym collection of RNA variant scans (doi:10.1093/nar/gkz1192) are described below.

The chains are these.
B1: CPEB3 Ribozyme (parent)
chain: UAACAGGGGGCCACAGCAGAAGCGUUCACGUCGCAGCCCCUGUCAGAUUCUGGUGAAUCUGCGAAUUCUGCUGUAUAUCUC

The variants in this data set derive from B1. As to the kind of experiment: self-cleavage, relative activity (ratio to wild type); higher = more cleavage; in vitro, sequencing. In outline: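 Libraries of CPEB3 self-cleaving ribozyme mutants came from rounds of error-prone PCR and carried barcodes, which DNA sequencing matched to variants. In vitro transcription used T7 RNA polymerase at 37°C for 5 hours, with a further 15 min in DNase I before EDTA stopped the reaction; the ribozymes cleaved during both steps. The RNA was reverse transcribed with template switching and sequenced on Illumina. Relative activity is the cleaved/total read fraction of a variant divided by that of the unmutated ribozyme, averaged over three batches with at least 5 reads.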
G8A A21G: the self-cleavage is 0.28.

G7U U60C: the self-cleavage came to 0.1.

Consider G7U U72C, for which the self-cleavage came out at 0.25.

On to G7U U72G, for which the self-cleavage was determined as 0.07.

On to G7A A56G, for which the self-cleavage came to 0.15.

For G7A A56U, the self-cleavage turned out to be 0.52.

On to G6U C62G, for which the self-cleavage came out at 0.25.

Consider G6C U74C, for which the self-cleavage worked out at 0.67.

Take G7A U80A: the self-cleavage came to 0.25.

For the variant G7A U80C, the self-cleavage worked out at 0.29.

As to G6U U60A, the self-cleavage worked out at 0.49.

Consider G6U U60C, for which the self-cleavage was found to be 0.24.

On to G6U A45U, for which the self-cleavage came to 0.19.

With G6U A45G, the self-cleavage was determined as 0.11.

With G7C C32U, the self-cleavage is 0.12.

Take G6C U41C: the self-cleavage was found to be 0.49.

As to G6U U51C, the self-cleavage stood at 0.36.

Take G6U U69C: the self-cleavage was 0.22.

Take G7A G33U: the self-cleavage amounted to 0.07.

Turning to G6U A13U, the self-cleavage worked out at 0.18.

For the variant G7A A35U, the self-cleavage was determined as 0.19.

Take G7A A35G: the self-cleavage was 0.46.

As for G6C A21U, the self-cleavage is 0.39.

For G6C A21G, the self-cleavage came out at 0.56.

As for G6U A20G, the self-cleavage was 0.26.

For G6U A20U, the self-cleavage is 0.34.

As for G7C A56G, the self-cleavage is 0.23.

For G6C A57G, the self-cleavage came out at 0.5.

On to G7C A65G, for which the self-cleavage was 0.22.

Take G6U G9A: the self-cleavage came to 0.4.

As for G6U U31A, the self-cleavage is 0.17.

For the variant G6U U31C, the self-cleavage worked out at 0.22.

As for G6C C27U, the self-cleavage stood at 0.33.

For the variant G6U G8A, the self-cleavage amounted to 0.23.

Take G7C U51C: the self-cleavage stood at 0.28.

Consider G7A G70C, for which the self-cleavage came out at 0.06.

Regarding G6U U43C, the self-cleavage was determined as 0.32.

For G6C U69C, the self-cleavage is 0.21.

For G7U U48A, the self-cleavage came to 0.07.

With G7C A13C, the self-cleavage stood at 0.09.

For G7C A13U, the self-cleavage was found to be 0.26.

On to G7C A13G, for which the self-cleavage amounted to 0.32.

Consider G8A A20G, for which the self-cleavage turned out to be 0.25.

With G8A A20U, the self-cleavage worked out at 0.22.

As to G6C G53A, the self-cleavage was 0.59.

Consider G8A A15C, for which the self-cleavage was found to be 0.31.

For G8A A15U, the self-cleavage turned out to be 0.16.

In the case of G8A A15G, the self-cleavage is 0.3.

G7U U51G: the self-cleavage was 0.2.

Turning to G7U U51C, the self-cleavage amounted to 0.28.

For G7U U51A, the self-cleavage amounted to 0.21.

G7U U67C: the self-cleavage was determined as 0.25.

For G7A C62U, the self-cleavage stood at 0.22.

As to G7U U66C, the self-cleavage was determined as 0.17.

In the case of G8A A18G, the self-cleavage stood at 0.21.

As to G8A A18U, the self-cleavage is 0.07.

Regarding G6U G52A, the self-cleavage is 0.47.

For the variant G6C U72A, the self-cleavage was 0.18.

In the case of G7A G16C, the self-cleavage was determined as 0.23.

For G7A C11G, the self-cleavage is 0.07.

For G6C U48C, the self-cleavage amounted to 0.47.

Turning to G7C U66C, the self-cleavage is 0.5.

Take G7A A64U: the self-cleavage stood at 0.18.

On to G7A A64G, for which the self-cleavage came out at 0.28.

With G7U U54C, the self-cleavage came to 0.24.

Regarding G6C A65G, the self-cleavage came out at 0.46.

With G7A A57G, the self-cleavage was found to be 0.12.

As to G7A U26C, the self-cleavage turned out to be 0.25.

Take G7A U26A: the self-cleavage was 0.28.

Regarding G7A U26G, the self-cleavage stood at 0.07.

As for G7C A64G, the self-cleavage amounted to 0.35.

Consider G8A A13U, for which the self-cleavage is 0.3.

In the case of G8A A13G, the self-cleavage was found to be 0.44.

Turning to G7C U25A, the self-cleavage was 0.27.

With G7C U25C, the self-cleavage turned out to be 0.27.

G7A A45U: the self-cleavage worked out at 0.16.

Turning to G7A A45G, the self-cleavage is 0.16.

For G7C A75U, the self-cleavage was determined as 0.31.

Regarding G7U U41C, the self-cleavage stood at 0.21.

For the variant G7A G53A, the self-cleavage was 0.19.

Consider G6U G16C, for which the self-cleavage amounted to 0.19.

G6C A35U: the self-cleavage came to 0.3.

As for G6U A77U, the self-cleavage is 0.16.

For the variant G7U C17U, the self-cleavage stood at 0.2.

For the variant G7U C39U, the self-cleavage came to 0.19.

As to G6C C38A, the self-cleavage stood at 0.43.

As to G7U G33A, the self-cleavage was found to be 0.11.

Regarding G6C A45U, the self-cleavage is 0.32.

As for G7U C79A, the self-cleavage amounted to 0.28.

Consider G7A U60A, for which the self-cleavage was 0.37.

In the case of G7A U60C, the self-cleavage came out at 0.11.

Consider G6U U72C, for which the self-cleavage is 0.37.

Take G7U G36C: the self-cleavage turned out to be 0.14.

In the case of G6U C79A, the self-cleavage was found to be 0.46.

With G7A C37A, the self-cleavage came out at 0.11.

Turning to G7A A18G, the self-cleavage came to 0.25.

Take G7C U72C: the self-cleavage amounted to 0.37.

G7C U72G: the self-cleavage was found to be 0.27.

Take G7A C32U: the self-cleavage is 0.09.

G7C A20U: the self-cleavage was 0.22.

Consider G7U G30A, for which the self-cleavage is 0.16.

For G7U G42U, the self-cleavage amounted to 0.14.

For G6C A18U, the self-cleavage is 0.07.

Consider G6U U78A, for which the self-cleavage was 0.79.

With G8A A28G, the self-cleavage amounted to 0.23.

For G8A A28U, the self-cleavage was found to be 0.14.

Consider G7A A15G, for which the self-cleavage is 0.09.

On to G7A A15U, for which the self-cleavage was 0.23.

As to G7A U41C, the self-cleavage turned out to be 0.25.

In the case of G7A U41A, the self-cleavage came out at 0.13.

For G6U G73A, the self-cleavage was 0.57.

Turning to G7A U48C, the self-cleavage worked out at 0.16.

For the variant G7A U48A, the self-cleavage worked out at 0.31.

As to G7U U78C, the self-cleavage was determined as 0.13.

Take G7U U78A: the self-cleavage was 0.48.

Take G7C U43C: the self-cleavage was 0.36.

On to G7C U43A, for which the self-cleavage stood at 0.24.

For G7U G24A, the self-cleavage worked out at 0.22.

For the variant G6U U41A, the self-cleavage came out at 0.35.

Turning to G7U A13U, the self-cleavage amounted to 0.34.

In the case of G7U A13G, the self-cleavage stood at 0.18.

Consider G6U A35U, for which the self-cleavage came to 0.36.

For G6U A35G, the self-cleavage was 0.41.

As for G7A U54G, the self-cleavage amounted to 0.22.

Turning to G7A U54A, the self-cleavage worked out at 0.47.

Regarding G7A U54C, the self-cleavage turned out to be 0.38.

With G6C U31A, the self-cleavage was found to be 0.16.

On to G6C U31C, for which the self-cleavage was 0.45.

As for G7U C32U, the self-cleavage was found to be 0.07.

On to G7U G63A, for which the self-cleavage worked out at 0.33.

With G7U C29U, the self-cleavage turned out to be 0.09.

Turning to G7U G73U, the self-cleavage was found to be 0.23.

As to G8A A56G, the self-cleavage was determined as 0.24.

G8A A56C: the self-cleavage came to 0.24.

With G8A A56U, the self-cleavage is 0.38.

Regarding G7C G9U, the self-cleavage was 0.36.

On to G7C G9A, for which the self-cleavage was determined as 0.23.

As to G6C U78C, the self-cleavage worked out at 0.48.

Take G6A U78A: the self-cleavage was 0.11.

As to G6A U78C, the self-cleavage is 0.24.

For G7A U78C, the self-cleavage came out at 0.15.

On to G7A U78G, for which the self-cleavage amounted to 0.08.

G6C U51A: the self-cleavage came to 0.38.

G6U G10A: the self-cleavage came to 0.34.

In the case of G7A G24A, the self-cleavage was determined as 0.08.

Regarding G7A A47G, the self-cleavage is 0.09.

Consider G6U C59U, for which the self-cleavage was 0.09.

Turning to G6U C12U, the self-cleavage worked out at 0.19.

Regarding G7C G61C, the self-cleavage was 0.1.

On to G6U U80C, for which the self-cleavage was 0.09.

On to G6U U80A, for which the self-cleavage was 0.44.

Regarding G6U U48C, the self-cleavage amounted to 0.13.

On to G6U U48A, for which the self-cleavage turned out to be 0.16.

In the case of G6C A20G, the self-cleavage was found to be 0.44.

Turning to G6A U76G, the self-cleavage stood at 0.14.

For G6A U76C, the self-cleavage was determined as 0.27.

As to G7U U25A, the self-cleavage amounted to 0.15.

G7U U25C: the self-cleavage worked out at 0.2.

Take G7C U31A: the self-cleavage stood at 0.25.

G7C U31C: the self-cleavage amounted to 0.41.

For G7A G8C, the self-cleavage is 0.15.

As for G6C U67C, the self-cleavage stood at 0.3.

As for G6C U58A, the self-cleavage came to 0.21.

In the case of G6U C71A, the self-cleavage turned out to be 0.16.

With G7A C12U, the self-cleavage is 0.07.

In the case of G7A U67A, the self-cleavage is 0.17.

G7A U67C: the self-cleavage turned out to be 0.25.
